Experiments:
[1] = system: EPSPS defective E. coli (E. coli DH5α with EPSPS gene and C-P Lyase gene being knocked out, EDCE); experiment: growth of E. coli transformed by genes encoding rice EPSPS (wild type and mutants) in culture media containing different glyphosate concentrations (Example 5, FIG. 1); type: cell-based; settings: for EPSPS enzyme activity: concluded from growth of EPSPS defective E. coli at 0 mM glyphosate; for growth of transformed E. coli: culture media containing 1 mM glyphosate
Text: E. coli transformed by the gene (SEQ ID NO: 3) encoding the rice EPSPS mutant I provided in Example 1 was taken as Experiment Group 1 (only containing a mutation K100(85)I).
E. coli transformed by the gene (with a nucleotide sequence represented by SEQ ID NO: 5, and an amino acid sequence of the encoded rice EPSPS mutant is represented by SEQ ID NO: 6) encoding the rice EPSPS mutant that contains only mutations G111(96)A and P116(101)S but no mutation K100(85)I was taken as Experiment Group 2.
E. coli transformed by the gene (SEQ ID NO: 7) encoding the rice EPSPS mutant II provided in Example 2 was taken as Experiment Group 3 (the encoded rice EPSPS mutant II contained three mutations: K100(85)I, G111(96)A and P116(101)S).
E. coli transformed by the gene (SEQ ID NO: 1, which encoded the wild-type rice EPSPS represented by SEQ ID NO: 2) encoding the wild-type rice EPSPS was taken as a control group.
The glyphosate resistance of the gene encoding the rice EPSPS mutant I and the rice EPSPS mutant I encoded thereby in E. coli, and the glyphosate resistance of the gene encoding the rice EPSPS mutant II and the rice EPSPS mutant II encoded thereby in E. coli were verified by detecting the growth situation of the transformed E. coli in culture media (culture media obtained by adding a certain concentration of antibiotics Spec (Spectinomycin), Gen (Gentamycin), Amp (Ampicillin) and glyphosate of different concentrations, with M9 as a basal culture medium) containing different glyphosate concentrations (0 mM, 1 mM, 10 mM, and 50 mM).
In the above, the E. coli used was double knockout E. coli, namely, EPSPS defective E. coli (E. coli DH5α with EPSPS gene and C-P Lyase gene being knocked out, named as EDCE, wherein for a preparation method thereof, reference can be made to a Chinese invention patent with the filing number CN2016103256926).
The detection method is a method commonly known in the art, and is briefly described as follows: synthesizing the gene encoding the rice EPSPS mutant by using a chemical synthesis method, introducing enzyme sites (Pac1 and Sbf1) at two ends thereof, connecting to an expression vector (for example, a pADV5 vector, the structure of which is shown in FIG. 4) that had undergone the same restriction enzyme digestion treatment under the action of ligase after restriction enzyme digestion, then transforming double knockout E. coli, picking positive colonies after verification, inoculating the positive colonies to a culture medium containing glyphosate for growth, and observing the growth situation.
Results are as shown in FIG. 1 (wherein R0 is a control group, R1 is Experiment Group 1, R2 is Experiment Group 2, and R3 is Experiment Group 3).

[2] = system: transgenic rice seedlings; experiment: glyphosate resistance of the EPSPS mutant in transgenic rice plants sprayed with glyphosate (Example 8, Table 1); type: in vivo, rice (Nipponbare); settings: for glyphosate resistance of transformed rice seedlings (in words): glyphosate sprayed at the 1× dosage
Text: A method for detecting the glyphosate resistance of the G1 soybean EPSPS mutant (SEQ ID NO: 20), G2 soybean EPSPS mutant (SEQ ID NO: 22) and G3 soybean EPSPS mutant (SEQ ID NO: 24) provided in Example 7, the R1 rice EPSPS mutant (SEQ ID NO: 4) provided in Example 5, and the Z1 maize EPSPS mutant (SEQ ID NO: 12) provided in Example 6 in the transgenic rice is as follows:
The plasmids (containing the EPSPS mutant gene) of the monoclonal resistant bacteria of pADV5-EPSPS in Examples 1-7 were extracted by a conventional method, followed by double enzyme digestion by Pac1 and BstEII, the small fragments were collected, and then the small fragments were ligated, using T4 DNA ligase, to the pGVP1 vectors that had undergone the same double enzyme digestion, to obtain a pGVP1-EPSPS vector having a structure as shown in FIG. 8.
In the present example, the glyphosate resistance of the EPSPS mutant in transgenic rice plants were verified. An experiment method is as follows:
The transgenic rice seedlings transplanted were uniformly arranged in a same experiment area (preventing leaves from overlapping). The areas occupied by the experiment groups and the control group were calculated, and according to the areas, glyphosate was sprayed at a 1× dosage of 1060 g/hectare (0.106 g/m^2). 2× dosage was 2120 g/hectare, 5× dosage was 5300 g/hectare, and 20× dosage was 21200 g/hectare.
Commercially available Roundup® 41% ammonium glyphosate was used. Roundup® ammonium glyphosate with corresponding volumes was taken according to the above sprayed concentrations, then diluted with 20 times of volume of water, and then uniformly sprayed on the plants in the experiment groups and the control group. After leaf surfaces were dry, the plants were moved into greenhouse or outdoor to cultivate.
After the glyphosate was sprayed at the 1× dosage, growth states of the plants in each group were observed and recorded on a 10th day, and glyphosate was sprayed to the survived plants at the 2× dosage. The growth states of the plants in each group were observed and recorded 10 days later, and glyphosate was sprayed to the survived plants at the 5× dosage. The growth states of the plants in each group were observed and recorded 10 days later, and glyphosate was sprayed to the survived plants at the 20× dosage. The growth states of the plants in each group were observed and recorded 10 days later, and results are shown in Table 1, wherein corresponding numbers of plants denoted by −, +, ++ and +++ are listed, and “%++&+++” is percentage of plant having medium and high glyphosate resistance to the total number of plants observed.

[3] = 1X dosage (1060 g/hectare glyphosate), recorded on 10th day
[4] = 2X dosage (2120 g/hectare) sprayed to plants surviving 1X, recorded 10 days later
[5] = 5X dosage (5300 g/hectare) sprayed to plants surviving 2X, recorded 10 days later
[6] = 20X dosage (21200 g/hectare) sprayed to plants surviving 5X, recorded 10 days later

| Molecule | EPSPS enzyme activity [1] | growth of transformed E. coli [1] | % ++&+++ (percentage of plant having medium and high glyphosate resistance to the total number of plants observed) [2, 3] [%] | number of plants with resistance + (low glyphosate resistance) [2, 3] | number of plants with resistance ++ (medium glyphosate resistance) [2, 3] | number of plants with resistance +++ (high glyphosate resistance) [2, 3] | number of plants with resistance − (no glyphosate resistance) [2, 3] | % ++&+++ (percentage of plant having medium and high glyphosate resistance to the total number of plants observed) [2, 4] [%] | number of plants with resistance + (low glyphosate resistance) [2, 4] | number of plants with resistance ++ (medium glyphosate resistance) [2, 4] | number of plants with resistance +++ (high glyphosate resistance) [2, 4] | number of plants with resistance − (no glyphosate resistance) [2, 4] | % ++&+++ (percentage of plant having medium and high glyphosate resistance to the total number of plants observed) [2, 5] [%] | number of plants with resistance + (low glyphosate resistance) [2, 5] | number of plants with resistance ++ (medium glyphosate resistance) [2, 5] | number of plants with resistance +++ (high glyphosate resistance) [2, 5] | number of plants with resistance − (no glyphosate resistance) [2, 5] | % ++&+++ (percentage of plant having medium and high glyphosate resistance to the total number of plants observed) [2, 6] [%] | number of plants with resistance + (low glyphosate resistance) [2, 6] | number of plants with resistance ++ (medium glyphosate resistance) [2, 6] | also measured |
| --- | --- | --- | --- | --- | --- | --- | --- | --- | --- | --- | --- | --- | --- | --- | --- | --- | --- | --- | --- | --- | --- |
| R0: wild-type rice EPSPS represented by SEQ ID NO: 2; control group of Example 5 (protein, listed as Oryza sativa) MASNAAAAAAKAEEIVLQPIREISGAVQLPGSKSLSNRILLLSALSEGTTVVDNLLNSEDVHYMLEALKALGLSVEADKVAKRAVVVGCGGKFPVEKDAKEEVQLFLGNAGTAMRPLTAAVTAAGGNATYVLDGVPRMRERPIGDLVVGLKQLGADVDCFLGTECPPVRVKGIGGLPGGKVKLSGSISSQYLSALLMAAPLALGDVEIEIIDKLISIPYVEMTLRLMERFGVKAEHSDSWDRFYIKGGQKYKSPGNAYVEGDASSASYFLAGAAITGGTVTVQGCGTTSLQGDVKFAEVLEMMGAKVTWTDTSVTVTGPPREPYGKKHLKAVDVNMNKMPDVAMTLAVVALFADGPTAIRDVASWRVKETERMVAIRTELTKLGASVEEGPDYCIITPPEKLNITAIDTYDDHRMAMAFSLAACADVPVTIRDPGCTRKTFPNYFDVLSTFVRN | normal EPSPS enzyme activity | grew slowly | 0.0 | 1 | 0 | 0 | 30 | 0.0 | 0 | 0 | 0 | 31 | 0.0 | 0 | 0 | 0 | 31 | 0.0 | 0 | 0 | number of plants with resistance +++ (high glyphosate resistance) [2, 6]: 0; number of plants with resistance − (no glyphosate resistance) [2, 6]: 31; glyphosate resistance of transformed rice seedlings (in words) [2]: had no resistance, one was seriously damaged, and all the others died |
| R1: rice EPSPS mutant I, SEQ ID NO: 4, containing one mutation K100(85)I (protein, Oryza sativa EPSPS mutant with mutation K100(85)I) MASNAAAAAAKAEEIVLQPIREISGAVQLPGSKSLSNRILLLSALSEGTTVVDNLLNSEDVHYMLEALKALGLSVEADKVAKRAVVVGCGGKFPVEKDAIEEVQLFLGNAGTAMRPLTAAVTAAGGNATYVLDGVPRMRERPIGDLVVGLKQLGADVDCFLGTECPPVRVKGIGGLPGGKVKLSGSISSQYLSALLMAAPLALGDVEIEIIDKLISIPYVEMTLRLMERFGVKAEHSDSWDRFYIKGGQKYKSPGNAYVEGDASSASYFLAGAAITGGTVTVQGCGTTSLQGDVKFAEVLEMMGAKVTWTDTSVTVTGPPREPYGKKHLKAVDVNMNKMPDVAMTLAVVALFADGPTAIRDVASWRVKETERMVAIRTELTKLGASVEEGPDYCIITPPEKLNITAIDTYDDHRMAMAFSLAACADVPVTIRDPGCTRKTFPNYFDVLSTFVRN | normal EPSPS enzyme activity | obviously grew better than the control group (R0) | 88.9 | 0 | 0 | 16 | 2 | 27.8 | 5 | 4 | 1 | 8 | 11.1 | 3 | 2 | 0 | 13 | 0.0 | 2 | 0 | number of plants with resistance +++ (high glyphosate resistance) [2, 6]: 0; number of plants with resistance − (no glyphosate resistance) [2, 6]: 16; glyphosate resistance of transformed rice seedlings (in words) [2]: obviously superior to that of the rice seedlings transformed by R0 |
